From patent US6368809

Biological target: HA-epitope tagged E2F-4 (human) (UniProt Q16254)
Experiment: cell-based or functional assay

UniProt Q16254, sequence (Q16254 whole entry): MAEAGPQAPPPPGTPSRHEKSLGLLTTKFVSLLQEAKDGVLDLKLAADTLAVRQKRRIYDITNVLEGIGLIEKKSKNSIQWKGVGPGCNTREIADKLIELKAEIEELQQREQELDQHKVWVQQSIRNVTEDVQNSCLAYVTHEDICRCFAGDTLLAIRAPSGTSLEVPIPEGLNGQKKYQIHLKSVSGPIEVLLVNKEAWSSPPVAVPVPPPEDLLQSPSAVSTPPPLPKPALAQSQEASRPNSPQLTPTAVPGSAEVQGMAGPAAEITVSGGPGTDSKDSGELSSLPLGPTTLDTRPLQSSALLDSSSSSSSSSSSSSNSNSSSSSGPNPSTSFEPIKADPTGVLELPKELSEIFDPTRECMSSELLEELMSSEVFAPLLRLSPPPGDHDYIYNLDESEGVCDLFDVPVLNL

Substance “HA-tagged p107 (from UniProt P28749 1-1068)” has an E2F-4 half life (pulse chase, immunoprecipitation with 12CA5, phosphorimager; free E2-F4 approximately 2-3 hours) of 8 h.
